From article PMC10172135 come the findings set out here.

Experiment [1] deals with orange carotenoid protein OCP1 from Synechocystis sp. PCC 6803 (Synechocystis sp. PCC 6803).
For experiment [2], the target named is FRP-like protein (FRPL) from Pseudomonas borbori (Pseudomonas borbori). Put plainly: native MS; 4 µM (monomer) in 200 mM ammonium acetate pH 6.8, Q Exactive, positive ion mode.

As for “FRPL from a delta-proteobacterium of the Desulfobacteraceae family (natural protein)”, in experiment [1], the acceleration of OCP1’s recovery from photoconversion (20 °C, equimolar ratio of OCP1 to FRPL), compared to OCP1 alone was determined as 93%. For “FRP-like protein (FRPL) from Pseudomonas borbori (natural protein)”, the stoichiometry N (as a rule, a count of units in the complex or per binding partner) in experiment [2] was determined as 2.
